Earlier results as cited in patent publication US20250326839A1, “TREATMENT OF DISEASES RELATED TO COLONY-STIMULATING FACTOR 1 RECEPTOR DYSFUNCTION USING TREM2 AGONISTS” (Vigil Neuroscience, Inc., priority 2020, published 2025).
Like-named read-outs stand apart in the source and are kept apart here. Marks after values point to notes of the source that are not given here.

Target: T1, TREM2 (Homo sapiens, UniProt Q9NZC2)
T1 sequence (Q9NZC2 19-230): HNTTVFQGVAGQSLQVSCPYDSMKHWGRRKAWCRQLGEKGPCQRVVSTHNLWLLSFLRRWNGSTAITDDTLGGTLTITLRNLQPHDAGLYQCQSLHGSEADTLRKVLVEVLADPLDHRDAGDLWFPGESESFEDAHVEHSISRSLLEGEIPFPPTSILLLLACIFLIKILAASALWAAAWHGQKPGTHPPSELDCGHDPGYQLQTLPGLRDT
Conditions: cited from earlier work

[1] = 10 nM Ab concentration (values not marked *)

| Molecule | Binding Signal (fold over 6E7 parental antibody) 1st screen 110 nM or 10 nM [1] | Binding Signal (fold over 6E7 parental antibody) 2nd screen 2 nM (2nd screen) | Binding Signal (fold over 6E7 parental antibody) 2nd screen 10 nM (2nd screen) | Binding Signal (fold over 6E7 parental antibody) 1st screen 110 nM or 10 nM (110 nM Ab concentration (values marked *)) | Binding Signal (fold over 6E7 parental antibody) 2nd screen 100 nM (2nd screen, 100 nM) |
| --- | --- | --- | --- | --- | --- |
| V87: 6E7 variant: VH T30R, T58V, S63D, Q99S; VL N56W (antibody, V domains shown) VH: EVQLVQSGAEVKKPGESLKISCKGSGYSFRSYWIAWVRQMPGKGLEWMGIIYPGDSDVRYSPDFQGQVTISADKSISTAYLQWSSLKASDTAMYFCARSRTFYYDSSDYFDYWGQGTLVTVSS VL: DIQMTQSPSSVSASVGDRVTITCRASQGISSWLAWYQQKPGKAPKLLIYAASSLQWGVPSRFSGSGSGTDFTLTISSLQPEDFATYFCQQADSFPRTFGQGTKLEIK | 3.84 fold over 6E7 parental antibod | 4.86 fold over 6E7 parental antibod | 3.93 fold over 6E7 parental antibod | – | – |
| V88: 6E7 variant: VH T30G; VL S53R, N56R, F94S (antibody, V domains shown) VH: EVQLVQSGAEVKKPGESLKISCKGSGYSFGSYWIAWVRQMPGKGLEWMGIIYPGDSDTRYSPSFQGQVTISADKSISTAYLQWSSLKASDTAMYFCARQRTFYYDSSDYFDYWGQGTLVTVSS VL: DIQMTQSPSSVSASVGDRVTITCRASQGISSWLAWYQQKPGKAPKLLIYAASRLQRGVPSRFSGSGSGTDFTLTISSLQPEDFATYFCQQADSSPRTFGQGTKLEIK | 4.92 fold over 6E7 parental antibod | 5.57 fold over 6E7 parental antibod | 5.30 fold over 6E7 parental antibod | – | – |
| V90: 6E7 variant: VH Y32E; VL S31R (antibody, V domains shown) VH: EVQLVQSGAEVKKPGESLKISCKGSGYSFTSEWIAWVRQMPGKGLEWMGIIYPGDSDTRYSPSFQGQVTISADKSISTAYLQWSSLKASDTAMYFCARQRTFYYDSSDYFDYWGQGTLVTVSS VL: DIQMTQSPSSVSASVGDRVTITCRASQGISRWLAWYQQKPGKAPKLLIYAASSLQNGVPSRFSGSGSGTDFTLTISSLQPEDFATYFCQQADSFPRTFGQGTKLEIK | – | – | – | 0.33* fold over 6E7 parental antibod | 0.36 fold over 6E7 parental antibod |
| V13: 6E7 variant: VH T30G, P62A, Q99G; VL N56G, F94M (antibody, V domains shown) VH: EVQLVQSGAEVKKPGESLKISCKGSGYSFGSYWIAWVRQMPGKGLEWMGIIYPGDSDTRYSASFQGQVTISADKSISTAYLQWSSLKASDTAMYFCARGRTFYYDSSDYFDYWGQGTLVTVSS VL: DIQMTQSPSSVSASVGDRVTITCRASQGISSWLAWYQQKPGKAPKLLIYAASSLQGGVPSRFSGSGSGTDFTLTISSLQPEDFATYFCQQADSMPRTFGQGTKLEIK | 1.31 fold over 6E7 parental antibod | 1.15 fold over 6E7 parental antibod | 1.35 fold over 6E7 parental antibod | – | – |
| V14: 6E7 variant: VH T30G, S56Q, Q99G; VL S53R (antibody, V domains shown) VH: EVQLVQSGAEVKKPGESLKISCKGSGYSFGSYWIAWVRQMPGKGLEWMGIIYPGDQDTRYSPSFQGQVTISADKSISTAYLQWSSLKASDTAMYFCARGRTFYYDSSDYFDYWGQGTLVTVSS VL: DIQMTQSPSSVSASVGDRVTITCRASQGISSWLAWYQQKPGKAPKLLIYAASRLQNGVPSRFSGSGSGTDFTLTISSLQPEDFATYFCQQADSFPRTFGQGTKLEIK | 4.71 fold over 6E7 parental antibod | 2.57 fold over 6E7 parental antibod | 4.64 fold over 6E7 parental antibod | – | – |
